Measurements reported in paper PMC4069162.

Legend:
Experiment in all cases: cross-linking; in vivo cross-linking with DSP in S. enterica ATCC14028SΔacrABΔmdsABC::Cm5ΔtolC::Tn10 cells coexpressing MdsA-flag, MdsB-myc and MdsC-hexahistidine (grown to OD600 = 0.8); MdsC-His isolated on a Ni-NTA resin column, cross-linked MdsA detected by anti-flag immunoblot
[1] = target: MdsC-G220A with a c-terminal hexahistidine tag (Salmonella enterica serovar Typhimurium ATCC14028S)
[2] = target: MdsC-G433A with a c-terminal hexahistidine tag (Salmonella enterica serovar Typhimurium ATCC14028S)
[3] = target: MdsC-L441R with a c-terminal hexahistidine tag (Salmonella enterica serovar Typhimurium ATCC14028S)
[4] = target: MdsC with a c-terminal hexahistidine tag (wild type) (Salmonella enterica serovar Typhimurium ATCC14028S)

In the case of “MdsA with a c-terminal flag tag (wild type) (from UniProt A0A4P7XPD4 1-408) (natural protein)”, the MdsA crosslinked, percent of that with wild-type MdsC [1] is reported as 20%, the MdsA crosslinked, percent of that with wild-type MdsC [2] is reported as 39% and the MdsA crosslinked, percent of that with wild-type MdsC [3] is reported as 16%.

Work on “MdsA-S146D with a c-terminal flag tag (from UniProt A0A4P7XPD4 1-408) (natural protein)” yielded a crosslinking to MdsC, percent of wild type [4] of 16%.
